Assay results from patent publication US5739276.
Several values for one entry are separate records, joined by “and”; a condition that tells them apart may be missing. Equal values may be shown once.

Legend:
[1] = target: rat brain Ca^2+ channels (ω-conotoxin GVIA binding site in rat brain membranes) (rat); assay: competition on rat brain membranes; label (competitor) 125I-ω-conotoxin GVIA
[2] = target: rat brain Na channel (voltage-sensitive sodium channels in rat brain membranes) (rat); assay: competition on rat brain membranes; label (competitor) 125I-δ-conotoxin TxVIA
[3] = target: rat brain Na channel (voltage-sensitive sodium channels in rat brain membranes) (rat); assay: binding of 125I-δ-conotoxin TxVIA to rat brain membranes, no competitor
[4] = target: rat brain Ca^2+ channels (ω-conotoxin GVIA binding site in rat brain membranes) (rat); assay: binding of 125I-ω-conotoxin GVIA to rat brain membranes, no competitor
[5] = target: ω-conotoxin GVIA binding sites on brain membrane preparations from frogs, chicks and rats

Substance | cpm bound [1] [cpm] | cpm bound [2] [cpm] | cpm bound [3] [cpm] | cpm bound [4] [cpm] | percent of ^125 I-GVIA displaced [5]
δ-conotoxin PVIA (amidated) (peptide) | 4930 | 889 |  |  | 
^125 I!δ-conotoxin TxVIA (peptide) |  |  | 4890 |  | 
^125 I-labeled ω-conotoxin GVIA (from UniProt P01522) (peptide) |  |  |  | 4400 | 
ω-conotoxin GVIA (from UniProt P01522) (peptide) | 954 | 4710 |  |  | 90% and 98%
δ-conotoxin PVIA (nonamidated) (peptide) | 4390 | 848 |  |  | 
δ-conotoxin TxVIA (peptide) | 4720 | 925 |  |  | 
